# Test results reported in US20260274985A1 (MYTHIC THERAPEUTICS, published 2026).
# Molecular target: T1, Human TROP2 Protein, His Tag (Acro Biosystems) (human, UniProt P09758 27-274)
# T1 construct: not shown: His tag
# T1 sequence (looked up): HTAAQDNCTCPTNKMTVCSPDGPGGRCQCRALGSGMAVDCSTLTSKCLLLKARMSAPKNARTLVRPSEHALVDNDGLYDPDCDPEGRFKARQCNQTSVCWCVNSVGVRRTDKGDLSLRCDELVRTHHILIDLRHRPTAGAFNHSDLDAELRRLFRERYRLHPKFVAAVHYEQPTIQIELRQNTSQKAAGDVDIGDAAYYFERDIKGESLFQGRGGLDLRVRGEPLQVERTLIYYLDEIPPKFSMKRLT
# Experiment: BLI (Octet)
row,Binder,binding result
1,"MYT12367 (antibody, V domains shown, sacituzumab VL 92, 93 -> H) VH: QVQLQQSGSELKKPGASVKVSCKASGYTFTNYGMNWVKQAPGQGLKWMGWINTYTGEPTYTDDFKGRFAFSLDTSVSTAYLQISSLKADDTAVYFCARGGFGSSYWYFDVWGQGSLVTVSS VL: DIQLTQSPSSLSASVGDRVSITCKASQDVSIAVAWYQQKPGKAPKLLIYSASYRYTGVPDRFSGSGSGTDFTLTISSLQPEDFAVYYCQQHHHTPLTFGAGTKVEIK",binds
2,"MYT12368 (antibody, V domains shown, sacituzumab VL 30, 51, 53 -> H) VH: QVQLQQSGSELKKPGASVKVSCKASGYTFTNYGMNWVKQAPGQGLKWMGWINTYTGEPTYTDDFKGRFAFSLDTSVSTAYLQISSLKADDTAVYFCARGGFGSSYWYFDVWGQGSLVTVSS VL: DIQLTQSPSSLSASVGDRVSITCKASQDVHIAVAWYQQKPGKAPKLLIYSHSHRYTGVPDRFSGSGSGTDFTLTISSLQPEDFAVYYCQQHYITPLTFGAGTKVEIK",binds
3,"MYT12369 (antibody, V domains shown, sacituzumab VL 30, 51, 89 -> H) VH: QVQLQQSGSELKKPGASVKVSCKASGYTFTNYGMNWVKQAPGQGLKWMGWINTYTGEPTYTDDFKGRFAFSLDTSVSTAYLQISSLKADDTAVYFCARGGFGSSYWYFDVWGQGSLVTVSS VL: DIQLTQSPSSLSASVGDRVSITCKASQDVHIAVAWYQQKPGKAPKLLIYSHSYRYTGVPDRFSGSGSGTDFTLTISSLQPEDFAVYYCHQHYITPLTFGAGTKVEIK",binds
4,"MYT12370 (antibody, V domains shown, sacituzumab VL 30, 51, 93 -> H) VH: QVQLQQSGSELKKPGASVKVSCKASGYTFTNYGMNWVKQAPGQGLKWMGWINTYTGEPTYTDDFKGRFAFSLDTSVSTAYLQISSLKADDTAVYFCARGGFGSSYWYFDVWGQGSLVTVSS VL: DIQLTQSPSSLSASVGDRVSITCKASQDVHIAVAWYQQKPGKAPKLLIYSHSYRYTGVPDRFSGSGSGTDFTLTISSLQPEDFAVYYCQQHYHTPLTFGAGTKVEIK",binds
5,"MYT12373 (antibody, V domains shown, sacituzumab VL 30, 89, 93 -> H) VH: QVQLQQSGSELKKPGASVKVSCKASGYTFTNYGMNWVKQAPGQGLKWMGWINTYTGEPTYTDDFKGRFAFSLDTSVSTAYLQISSLKADDTAVYFCARGGFGSSYWYFDVWGQGSLVTVSS VL: DIQLTQSPSSLSASVGDRVSITCKASQDVHIAVAWYQQKPGKAPKLLIYSASYRYTGVPDRFSGSGSGTDFTLTISSLQPEDFAVYYCHQHYHTPLTFGAGTKVEIK",binds

# Molecular target: T2, Human TROP2 Protein, His Tag (human, UniProt P09758 27-274)
# T2 construct: Bought protein; also called TACSTD2; not shown: His tag
# T2 sequence (looked up): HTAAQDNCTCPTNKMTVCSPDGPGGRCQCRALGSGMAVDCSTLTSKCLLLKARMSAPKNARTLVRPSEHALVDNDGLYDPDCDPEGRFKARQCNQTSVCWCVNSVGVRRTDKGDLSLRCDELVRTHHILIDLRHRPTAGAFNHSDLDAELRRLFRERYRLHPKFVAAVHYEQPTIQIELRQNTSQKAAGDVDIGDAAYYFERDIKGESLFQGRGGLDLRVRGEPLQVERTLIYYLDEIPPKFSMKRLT
# Experiment: BLI (Octet) [2/2]
# Protocol: After allowing for four days of protein expression, cell culture supernatants were collected, quantified by SDS-PAGE analysis (DNS), and the pH dependence of the variant was evaluated using biolayer interferometry (BLI) on an Octet RED 96e instrument. Briefly, cell culture supernatants were diluted based on qualitative expression level of the variant determined by visual examination of SDS-PAGE gels, 5 μL of cell culture supernatant was diluted into 195 μL of 1×PBST, pH 7.4 for high expressors, 25 μL of cell culture supernatant was diluted into 175 μL of 1×PBST, pH 7.4 for medium expressors and 100 μL of cell culture supernatant was diluted into 100 μL of 1×PBST, pH 7.4 for low expressors for loading onto the sensor tips. The resulting diluted supernatants were then captured on an anti-human Fc sensor (Forte Bio). A baseline was established using 1×PBST (50 mM Potassium Phosphate Buffer+150 mM NaCl+0.05% Tween 20) pH 7.4, and the sensor was associated with 50 nM of TROP2 (Human TROP2 Protein, His Tag, Acro Biosystems) in 1×PBST pH 7.4 for 120 sec to generate an association curve. In the dissociation phase, the antibody-antigen complex on the sensor was exposed to 1×PBST pH 7.4 or pH 5.4, for 300 sec. Association and dissociation phase curves were examined for the starting ABPC antibody (with no substitutions) and each corresponding antibody variant at pH 5.4 and pH 7.4 to inform on two criteria: a) enhanced dissociation (i.e., higher koff values) at pH 5.4 due to histidine or alanine substitution compared to the starting ABPC, (with no substitutions), and b) reduced dissociation at pH 7.4 (i.e., lower koff values) compared to pH 5.4 in the antibody variant itself and with the starting ABPC (with no substitutions). […] It was also noted that while some mutations obliterated TROP2 binding, others were tolerated with little or n change in TROP2 binding kinetics.
row,Binder,binding result
1,"MYT11677 (antibody, V domains shown, IgG from supernatant; His at LCV position 24; also called datopotamab variant L1 01) VH: QVQLVQSGAEVKKPGASVKVSCKASGYTFTTAGMQWVRQAPGQGLEWMGWINTHSGVPKYAEDFKGRVTISADTSTSTAYLQLSSLKSEDTAVYYCARSGFGSSYWYFDVWGQGTLVTVSS VL: DIQMTQSPSSLSASVGDRVTITCHASQDVSTAVAWYQQKPGKAPKLLIYSASYRYTGVPSRFSGSGSGTDFTLTISSLQPEDFAVYYCQQHYITPLTFGQGTKLEIK",binds
2,"MYT11681 (antibody, V domains shown, IgG from supernatant; His at LCV position 28; also called datopotamab variant L1 05) VH: QVQLVQSGAEVKKPGASVKVSCKASGYTFTTAGMQWVRQAPGQGLEWMGWINTHSGVPKYAEDFKGRVTISADTSTSTAYLQLSSLKSEDTAVYYCARSGFGSSYWYFDVWGQGTLVTVSS VL: DIQMTQSPSSLSASVGDRVTITCKASQHVSTAVAWYQQKPGKAPKLLIYSASYRYTGVPSRFSGSGSGTDFTLTISSLQPEDFAVYYCQQHYITPLTFGQGTKLEIK",binds
3,"MYT11683 (antibody, V domains shown, IgG from supernatant; His at LCV position 30; also called datopotamab variant L1 07) VH: QVQLVQSGAEVKKPGASVKVSCKASGYTFTTAGMQWVRQAPGQGLEWMGWINTHSGVPKYAEDFKGRVTISADTSTSTAYLQLSSLKSEDTAVYYCARSGFGSSYWYFDVWGQGTLVTVSS VL: DIQMTQSPSSLSASVGDRVTITCKASQDVHTAVAWYQQKPGKAPKLLIYSASYRYTGVPSRFSGSGSGTDFTLTISSLQPEDFAVYYCQQHYITPLTFGQGTKLEIK",binds
4,"MYT11684 (antibody, V domains shown, IgG from supernatant; His at LCV position 31; also called datopotamab variant L1 08) VH: QVQLVQSGAEVKKPGASVKVSCKASGYTFTTAGMQWVRQAPGQGLEWMGWINTHSGVPKYAEDFKGRVTISADTSTSTAYLQLSSLKSEDTAVYYCARSGFGSSYWYFDVWGQGTLVTVSS VL: DIQMTQSPSSLSASVGDRVTITCKASQDVSHAVAWYQQKPGKAPKLLIYSASYRYTGVPSRFSGSGSGTDFTLTISSLQPEDFAVYYCQQHYITPLTFGQGTKLEIK",binds
5,"MYT11685 (antibody, V domains shown, IgG from supernatant; His at LCV position 32; also called datopotamab variant L1 09) VH: QVQLVQSGAEVKKPGASVKVSCKASGYTFTTAGMQWVRQAPGQGLEWMGWINTHSGVPKYAEDFKGRVTISADTSTSTAYLQLSSLKSEDTAVYYCARSGFGSSYWYFDVWGQGTLVTVSS VL: DIQMTQSPSSLSASVGDRVTITCKASQDVSTHVAWYQQKPGKAPKLLIYSASYRYTGVPSRFSGSGSGTDFTLTISSLQPEDFAVYYCQQHYITPLTFGQGTKLEIK",no binding (tested: 50 nM)
6,"MYT11686 (antibody, V domains shown, IgG from supernatant; His at LCV position 33; also called datopotamab variant L1 10) VH: QVQLVQSGAEVKKPGASVKVSCKASGYTFTTAGMQWVRQAPGQGLEWMGWINTHSGVPKYAEDFKGRVTISADTSTSTAYLQLSSLKSEDTAVYYCARSGFGSSYWYFDVWGQGTLVTVSS VL: DIQMTQSPSSLSASVGDRVTITCKASQDVSTAHAWYQQKPGKAPKLLIYSASYRYTGVPSRFSGSGSGTDFTLTISSLQPEDFAVYYCQQHYITPLTFGQGTKLEIK",binds
7,"MYT11689 (antibody, V domains shown, IgG from supernatant; His at LCV position 51; also called datopotamab variant L2 02) VH: QVQLVQSGAEVKKPGASVKVSCKASGYTFTTAGMQWVRQAPGQGLEWMGWINTHSGVPKYAEDFKGRVTISADTSTSTAYLQLSSLKSEDTAVYYCARSGFGSSYWYFDVWGQGTLVTVSS VL: DIQMTQSPSSLSASVGDRVTITCKASQDVSTAVAWYQQKPGKAPKLLIYSHSYRYTGVPSRFSGSGSGTDFTLTISSLQPEDFAVYYCQQHYITPLTFGQGTKLEIK",binds
8,"MYT11692 (antibody, V domains shown, IgG from supernatant; His at LCV position 54; also called datopotamab variant L2 05) VH: QVQLVQSGAEVKKPGASVKVSCKASGYTFTTAGMQWVRQAPGQGLEWMGWINTHSGVPKYAEDFKGRVTISADTSTSTAYLQLSSLKSEDTAVYYCARSGFGSSYWYFDVWGQGTLVTVSS VL: DIQMTQSPSSLSASVGDRVTITCKASQDVSTAVAWYQQKPGKAPKLLIYSASYHYTGVPSRFSGSGSGTDFTLTISSLQPEDFAVYYCQQHYITPLTFGQGTKLEIK",binds
9,"MYT11693 (antibody, V domains shown, IgG from supernatant; His at LCV position 55; also called datopotamab variant L2 06) VH: QVQLVQSGAEVKKPGASVKVSCKASGYTFTTAGMQWVRQAPGQGLEWMGWINTHSGVPKYAEDFKGRVTISADTSTSTAYLQLSSLKSEDTAVYYCARSGFGSSYWYFDVWGQGTLVTVSS VL: DIQMTQSPSSLSASVGDRVTITCKASQDVSTAVAWYQQKPGKAPKLLIYSASYRHTGVPSRFSGSGSGTDFTLTISSLQPEDFAVYYCQQHYITPLTFGQGTKLEIK",binds
10,"MYT11694 (antibody, V domains shown, IgG from supernatant; His at LCV position 56; also called datopotamab variant L2 07) VH: QVQLVQSGAEVKKPGASVKVSCKASGYTFTTAGMQWVRQAPGQGLEWMGWINTHSGVPKYAEDFKGRVTISADTSTSTAYLQLSSLKSEDTAVYYCARSGFGSSYWYFDVWGQGTLVTVSS VL: DIQMTQSPSSLSASVGDRVTITCKASQDVSTAVAWYQQKPGKAPKLLIYSASYRYHGVPSRFSGSGSGTDFTLTISSLQPEDFAVYYCQQHYITPLTFGQGTKLEIK",binds
11,"MYT11695 (antibody, V domains shown, IgG from supernatant; His at LCV position 89; also called datopotamab variant L3 01) VH: QVQLVQSGAEVKKPGASVKVSCKASGYTFTTAGMQWVRQAPGQGLEWMGWINTHSGVPKYAEDFKGRVTISADTSTSTAYLQLSSLKSEDTAVYYCARSGFGSSYWYFDVWGQGTLVTVSS VL: DIQMTQSPSSLSASVGDRVTITCKASQDVSTAVAWYQQKPGKAPKLLIYSASYRYTGVPSRFSGSGSGTDFTLTISSLQPEDFAVYYCHQHYITPLTFGQGTKLEIK",binds
12,"MYT11696 (antibody, V domains shown, IgG from supernatant; His at LCV position 90; also called datopotamab variant L3 02) VH: QVQLVQSGAEVKKPGASVKVSCKASGYTFTTAGMQWVRQAPGQGLEWMGWINTHSGVPKYAEDFKGRVTISADTSTSTAYLQLSSLKSEDTAVYYCARSGFGSSYWYFDVWGQGTLVTVSS VL: DIQMTQSPSSLSASVGDRVTITCKASQDVSTAVAWYQQKPGKAPKLLIYSASYRYTGVPSRFSGSGSGTDFTLTISSLQPEDFAVYYCQHHYITPLTFGQGTKLEIK",binds
13,"MYT11697 (antibody, V domains shown, IgG from supernatant; Ala at LCV position 91 (starting residue His); also called datopotamab variant L3 03) VH: QVQLVQSGAEVKKPGASVKVSCKASGYTFTTAGMQWVRQAPGQGLEWMGWINTHSGVPKYAEDFKGRVTISADTSTSTAYLQLSSLKSEDTAVYYCARSGFGSSYWYFDVWGQGTLVTVSS VL: DIQMTQSPSSLSASVGDRVTITCKASQDVSTAVAWYQQKPGKAPKLLIYSASYRYTGVPSRFSGSGSGTDFTLTISSLQPEDFAVYYCQQAYITPLTFGQGTKLEIK",binds
